In the supplement of paper PMC10567573:
± gives the standard deviation.

Assay: protein stability index of a GFP-peptide fusion (GPS, HEK-293T) (PSI 1-6); higher = more stable
[1] = treatment: DMSO, c terminus: a fixed tail appended
[2] = treatment: MLN4924 1 uM, 8 h, c terminus: a fixed tail appended
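Also: 24-mer peptide tiles fused after GFP, lentivirally expressed, FACS-sorted into six equal bins by GFP/DsRed ratio, decoded by Illumina sequencing, PSI is the read-weighted mean bin number.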

Sequence	protein stability index [1]	protein stability index [2]	protein stability index (treatment: DMSO, c terminus: native)	protein stability index (treatment: MLN4924 1 uM, 8 h, c terminus: native)
DLNSKGKKREFRFHPIKETVVEEP [INTS3]	3 ± 0.65	3.64 ± 0.53		
DLSSLRAKYPHDVVNHLSCDEARN [SPACA9]	4.47 ± 0.21	4.33 ± 0.47		
DLYNWEVAIFGPPNTLYEGGYFKA [UBE2R2]	2.66 ± 0.4	2.32 ± 0.37		
DNSDYDYSALSCTSDASFHPAFLP [KCNG1]	3.59 ± 0.26	3.46 ± 0.32		
DPAYIAVLVLIFNAAKTCPTMPAL [INTS4]	3.12 ± 0.56	3.09 ± 0.47		
DPKRRMTIAQSLEHSWIKAIRRRN [DAPK3]	3.67 ± 0.33	3.91 ± 0.35		
DPLNICVFILLLVFIVVKCFTSE [RTP4]			2.93 ± 0.24	2.89 ± 0.098
DQDLDALMADLVADISEAEQRTIQ [APBB1IP]	4.48 ± 0.36	4.56 ± 0.21		
DQDYLHSLGKARTAQVQKDARIGE [FLOT1]	4.86 ± 0.16	4.74 ± 0.19		
DQERIKVERKRLRNRLAATKCRKR [JUNB]	4.83 ± 0.19	4.53 ± 0.17		
DRGLRGFPKNRVLEGVIDRYQQSK [TRIM9]	3.98 ± 0.35	4.01 ± 0.29		
DSETLDLEEAEGAVGYQPEYSKFC [NFE2L1]	5.13 ± 0.34	5.01 ± 0.5		
DSGVQACFNRSREYQLNDSAAYYL [GNAI1]	2.8 ± 0.15	2.75 ± 0.17		
DSSNSMQTIQKTTTRRIVDGKVVS [KRT18]	3.61 ± 0.19	3.73 ± 0.31		
DTANEIGQVLHFENVKDVPFGFQT [SERPINB5]	3.74 ± 0.075	3.99 ± 0.2		
DTTTPTTSAITASRSESPPPLSDP [BRD3]	5.45 ± 0.42	5.57 ± 0.12		
DWMAAMFGGPFVESSTREVVFPYT [RHOBTB2]	2.23 ± 0.3	2.04 ± 0.47		
DYSQLNESTTKESSEASQLEDAAG [FBXO34]	5.47 ± 0.28	5.35 ± 0.46		

Sequence	protein stability index [1]	protein stability index [2]	protein stability index (treatment: DMSO, c terminus: native)	protein stability index (treatment: MLN4924 1 uM, 8 h, c terminus: native)
DYTWTEFDEPFLTRNVQSVSIIDT [TRIP13]	3.1 ± 0.24	3.19 ± 0.23		
EAACNDVDRWPAPVPGKTLHLPIM [DENND6A]	3.52 ± 0.35	3.19 ± 0.37		
EAFAASAVGSGERRGGGPVFPAPV [ZBTB22]	3.93 ± 0.32	4.03 ± 0.28		
EAQLLQLKVKCLNNLAASQLKLDH [FKBP8]	2.69 ± 0.26	2.95 ± 0.23		
EAWYEDLQEVLSSDENGGTYVSPP [DDIT3]	4.89 ± 0.11	4.93 ± 0.15		
ECNECGKAFSRSSGLFNHRGIHNI [ZSCAN9]	2.48 ± 0.59	2.16 ± 0.31		
EDDRDGLLAEREQEEAIAQFPYVE [TMEM106C]	5.5 ± 0.19	5.64 ± 0.1		
EDFLLKKPIVPTDGKRVIVVFHCE [CDC25A]	2.37 ± 0.55	2.25 ± 0.64		
EDGEDFNLGDALDSSNSMQTIQKT [KRT18]	5.44 ± 0.29	5.41 ± 0.32		
EDQGGLEAVRQEMRRQEPLPPPPP [WAS]	5.3 ± 0.15	5.42 ± 0.22		
EDSSNQEEEGPSTFPDLESEFQAA [MAGEA3]	5.51 ± 0.28	5.48 ± 0.16		
EEADDTRYTQGTGGDEVDDSVSVN [ZC3H15]	5.63 ± 0.19	5.62 ± 0.19		
EEANADLEVKIRDWYQRQRPSEIK [KRT16]	4.14 ± 0.64	4.72 ± 0.27		
EEDSFYRSSYPQQQGLGASYRTES [TBX5]	4.37 ± 0.2	4.22 ± 0.15		
EEEERDQALQAKASLTIPLVPETE [YJU2B]	5.42 ± 0.16	5.5 ± 0.12		
EEENIGCEEKAKKNANRPLLDEIV [ACBD3]	5.25 ± 0.24	5.46 ± 0.24		
EESGAQLLLEMLTFNPHKRISAFR [CDK4]	2.21 ± 0.15	2.23 ± 0.18		
EEVDVTSVDPIAAFCSSDEELEDS [RBBP5]	5.55 ± 0.2	5.62 ± 0.16		
